# Measured values from US20020142457A1, “Cell having the potentiality of differentiation into cardiomyocytes” (priority 1999, published 2002).
# Ends that are not written are not given here.
# Legend:
# [1] = tested on: bone marrow cell (BMSC-MesP1); test: Differentiation of BMSC-MesP1 with cytokines, phase contrast microscope; assay type: cell-based, mouse; details: BMSC-MesP1, 5-aza-C 3 μM; cytokine 10 ng/ml; four weeks
# Procedure: A mouse bone marrow-derived pluripotent stem cell (BMSC-MesP1) having the potential to differentiate into cardiomyocytes in which the MesP1 gene was forced-expressed was obtained using a retrovirus vector in the same manner as in Example 6, and then the differentiation was induced to examine efficiency of differentiation into cardiomyocytes.
# The bone marrow cell (BMSC-MesP1) having the potential to differentiate into cardiomyocytes in which MesP1 was forced expressed was plated into a 60-mm culture dish in a density of 2×10^4 cells/ml and cultured at 33° C. in a 5% CO2-incubator. On the next day, 5-aza-C was added to the culture medium to give a final concentration of 3 μM, followed by culturing under five different conditions, namely (i) addition of FGF-8 to give a final concentration of 10 ng/ml (culture dish N), (ii) addition of ET-1 to give a final concentration of 10 ng/ml (culture dish P), (iii) addition of Midkine to give a final concentration of 10 ng/ml (culture dish Q), (iv) addition of BMP4 to give a final concentration of 10 ng/ml (culture dish R), and (v) no addition (culture dish S).
# On the next day, the medium was exchanged with a fresh medium in order to eliminate 5-aza-C from the medium, and then the culturing was continued by adding FGF-8 to the culture dish N to give a final concentration of 10 ng/ml, ET-1 to the culture dish P to give a final concentration of 10 ng/ml, Midkine to the culture dish Q to give a final concentration of 10 ng/ml and BMP4 to the culture dish R to give a final concentration of 10 ng/ml. Two days and 4 days thereafter, the medium exchange and addition of FGF-8, ET-1, Midkine or BMP4 were carried out similarly.
# Four weeks after the addition of 5-aza-C, morphology of the cells was observed under a phase contrast microscope. As a result, the number of myotube-like cells was not changed greatly by the forced expression of MesP1. In addition, about 50% of the cells became myotube-like cells in the culture dish to which FGF-8, ET-1, Midkine or BMP4 had been added.
# [2] = tested on: mouse bone marrow-derived pluripotent stem cells (BMSC); test: Quantitative PCR of genes expressed in myotubes from BMSC; assay type: cell-based; details: with 5-aza-C 3 μM, cytokine 10 ng/ml
# Procedure: RNAs were collected from the myotubes thus obtained. And genes expressed in the myotubes were analyzed with quantitative PCR analysis using the synthetic oligonucleotides represented by SEQ ID NOS:71 to 78. As a result, PDGF or retinoic acid promoted the expression of MyoD and fTnI genes relating to a skeletal muscle but not cTnI or ANP specifically relating to a myocardium. Next, mouse bone marrow-derived pluripotent stem cells (BMSC) having the potential to differentiate into cardiomyocytes were inoculated in a 60-mm culture dish at a density of 2×10^4 cells/ml and cultured using an incubator at 33° C. under 5% of CO2.
# RNAs were collected from the myotubes thus obtained. And genes expressed in the myotubes were analyzed with quantitative PCR using the synthetic oligonucleotides represented by SEQ ID NOS:71 to 78. As a result, the FGF-8, ET-1, midkine and BMP4 each individually promoted the expression of cTnI and ANP gene which are myocardium-specific genes.
Molecule,cells became myotube-like cells [1],expression of cTnI and ANP gene (myocardium-specific genes) [2]
"ET-1: endothelin 1, cytokine (CSCSSLMDKECVYFCHLDIIW; ends and bridges not checked; cysteine pairing not given here; UniProt P05305 53-73, looked up)",about 50%,promoted
"BMP4: bone morphogenic protein 4, cytokine (protein, UniProt P12644 293-408, looked up) Bone morphogenetic protein 4: SPKHHSQRARKKNKNCRRHSLYVDFSDVGWNDWIVAPPGYQAFYCHGDCPFPLADHLNSTNHAIVQTLVNSVNSSIPKACCVPTELSAISMLYLDEYDKVVLKNYQEMVVEGCGCR",about 50%,promoted
"midkine: cytokine, amino acid sequence SEQ ID NO:68 (protein, listed as Homo sapiens, CDS (1)..(432)) MQHRGFLLLTLLALLALTSAVAKKKDKVKKGGPGSECAEWAWGPCTPSSKDCGVGFREGTCGAQTQRIRCRVPCNWKKEFGADCKYKFENWGACDGGTGTKVRQGTLKKARYNAQCQETIRVTKPCTPKTKAKAKAKKGKGKD",about 50%,promoted
"FGF-8: fibroblast growth factor 8, cytokine (protein, UniProt P55075 23-233, looked up) Fibroblast growth factor 8: QEGPGRGPALGRELASLFRAGREPQGVSQQHVREQSLVTDQLSRRLIRTYQLYSRTSGKHVQVLANKRINAMAEDGDPFAKLIVETDTFGSRVRVRGAETGLYICMNKKGKLIAKSNGKGKDCVFTEIVLENNYTALQNAKYEGWYMAFTRKGRPRKGSKTRQHQREVHFMKRLPRGHHTTEQSLRFEFLNYPPFTRSLRGSQRTWAPEPR",about 50%,promoted
